Data: publication PMC3920632, “bkaR is a TetR-type repressor that controls an operon associated with branched-chain keto-acid metabolism in Mycobacteria”

T1: His6-BkaRMtb (Mycobacterium tuberculosis H37Rv, UniProt O06169 1-215)
T1 sequence: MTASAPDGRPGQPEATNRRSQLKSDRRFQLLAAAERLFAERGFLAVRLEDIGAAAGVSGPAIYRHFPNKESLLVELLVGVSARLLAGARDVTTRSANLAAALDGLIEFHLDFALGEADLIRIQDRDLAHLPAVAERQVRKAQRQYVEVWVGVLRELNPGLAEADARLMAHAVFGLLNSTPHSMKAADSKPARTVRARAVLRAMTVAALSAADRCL

B1: scoA motif probe (dsDNA)
DNA 1: CTCACCTCAGTTAATGATAATTAACTGAAA
DNA 2: TTTCAGTTAATTATCATTAACTGAGGTGAG
B2: probe 1 (bkaRMtb/fadD35) (dsDNA)
DNA 1: TCGTGCTACGTTAGTGACGATTAACCGAAG
DNA 2: CTTCGGTTAATCGTCACTAACGTAGCACGA
B3: MSMEG_4524 motif probe (dsDNA)
DNA 1: CAGCAAGTAAATGTAGCCTAACCTAGCTACG
DNA 2: CGTAGCTAGGTTAGGCTACATTTACTTGCTG
B4: MSMEG_4920 motif probe (dsDNA)
DNA 1: GCTGTGTTAACGATGATTAACCGGCACAGC
DNA 2: GCTGTGCCGGTTAATCATCGTTAACACAGC
B5: Rv0575c motif probe (dsDNA)
DNA 1: ACGCCAATACGTTAGCGCTCACTAACGTATTG
DNA 2: CAATACGTTAGTGAGCGCTAACGTATTGGCGT
B6: MSMEG_3414 motif probe (dsDNA)
DNA 1: TCGGTCCAGGTTAGCCAAAACTATTTCAGAA
DNA 2: TTCTGAAATAGTTTTGGCTAACCTGGACCGA
B7: Rv0576 motif probe (dsDNA)
DNA 1: GATCAATACGTTAGTGAGCGCTAACGTATT
DNA 2: AATACGTTAGCGCTCACTAACGTATTGATC
B8: MSMEG_3415 motif probe (dsDNA)
DNA 1: TACTTCTGAAATAGTTTTGGCTAACCTGGAC
DNA 2: GTCCAGGTTAGCCAAAACTATTTCAGAAGTA

Experiments:
His6-BkaRMtb [1] = target: T1, His6-BkaRMtb; assay: EMSA; 0.6 uM protein, 0.06 uM DNA; 20 mM HEPES pH 7.6, 1 mM EDTA, 10 mM ([…]; temperature not stated; settings: protein: recombinant; tags: His6 (pNIC28-Bsa4, GenBank EF198106); chain copies: 2; blunt
His6-BkaRMtb [2] = target: T1, His6-BkaRMtb; assay: EMSA; 20 mM HEPES pH 7.6, 1 mM EDTA, 10 mM ([…]; temperature not stated; settings: protein: recombinant, tags: His6 (pNIC28-Bsa4, GenBank EF198106), chain copies: 2, blunt

Row | Binder | binding result (His6-BkaRMtb [2]) | other results
1 | B1 | – | binding result (His6-BkaRMtb [1]): binds
2 | B2 | – | binding result (His6-BkaRMtb [2]; label: DIG-11-ddUTP 3' end): binds
3 | B3 | no binding | –
4 | B4 | – | binding result (His6-BkaRMtb [1]): binds
5 | B5 | no binding | –
6 | B6 | no binding | –
7 | B7 | no binding | –
8 | B8 | no binding | –
